Data as given in US20070212357A1 (published 2007).
Each block holds one molecule with its values, some of them ahead of it.

Experiments:
human NGF [1] = biological target: T1, human NGF (human, UniProt P01138 122-241); experiment: cell-based or functional assay
T1 construct: also called hNGF; human nerve growth factor

rat NGF (rat) = rat NGF (rat) (UniProt P25427); experiment: cell-based or functional assay
human NGF [2] = biological target: T1, human NGF; experiment: SPR (BIAcore), Fab over immobilized human NGF
human NGF [3] = biological target: T1, human NGF; experiment: SPR (BIAcore), Fab over immobilized human NGF; remark: listed apart in the source
human NGF [4] = biological target: T1, human NGF; experiment: SPR (BIAcore), Fab over CM5 chip with 100 RU of immobilized human NGF
human NGF [5] = biological target: T1, human NGF; experiment: SPR (BIAcore), human NGF on chip; KD calculated using kon 4e4 M-1s-1
human NGF [6] = biological target: T1, human NGF; experiment: SPR (BIAcore) screening, human NGF on chip; KD calculated using kon 4e4 M-1s-1
Description: Affinities of anti-NGF Fabs and monoclonal antibodies were determined using the BIAcore3000™ surface plasmon resonance (SPR) system (BIAcore, INC, Piscaway N.J.). CM5 chips were activated with N-ethyl-N′-(3-dimethylaminopropyl)-carbodiinide hydrochloride (EDC) and N-hydroxysuccinimide (NHS) according to the supplier's instructions. Human NGF was diluted into 10 mM sodium acetate pH 4.0 and injected over the activated chip at a concentration of 0.005 mg/mL. Using variable flow time across the individual chip channels, two ranges of antigen density were achieved: 100-200 response units (RU) for detailed kinetic studies and 500-600 RU for screening assays. The chip was blocked with ethanolamine. […] HBS-EP buffer (0.01M HEPES, pH 7.4, 0.15 NaCl, 3 mM EDTA, 0.005% Surfactant […]) was used as running buffer for all the BIAcore assays.

T1 sequence (P01138 122-241 limits assumed): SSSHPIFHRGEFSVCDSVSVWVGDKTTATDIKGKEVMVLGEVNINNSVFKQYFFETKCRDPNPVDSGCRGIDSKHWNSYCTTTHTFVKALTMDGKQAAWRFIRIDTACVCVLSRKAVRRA
Chain of rat NGF (rat) (P25427 122-241 limits assumed): as the sequence (P01138 122-241 limits assumed) above, with S3T, I6V, R9M, M37T, D60A, D65E, M92T, G94D, V117A, A120G counted along it

Kd (human NGF [2]): 3.7 nM
koff (human NGF [2]): 9e-05 s⁻¹
kon (human NGF [2]): 22000 M⁻¹ s⁻¹
Kd (human NGF [3]): 10 nM
koff (human NGF [4]): 8.4e-05 s⁻¹
Molecule: mouse antibody 911 (Fab)
IC50 (in the presence of 1.5 pM NGF), human NGF-dependent survival of mouse E13.5 trigeminal neurons (human NGF [1]): 63.5 pM
IC50 (in the presence of 15 pM NGF), human NGF-dependent survival of mouse E13.5 trigeminal neurons (human NGF [1]): 322 pM
IC50 (1.5 pM NGF), rat NGF-dependent survival of mouse E13.5 trigeminal neurons (rat NGF (rat)): 34.6 pM
IC50 (15 pM NGF), rat NGF-dependent survival of mouse E13.5 trigeminal neurons (rat NGF (rat)): 161 pM

Kd (human NGF [5]): 3.5 nM
B1: H19-L129 (Fab, V domains shown)
VH: QVQLQESGPGLVKPSETLSLTCTVSGFSLIGYDLNWIRQPPGKGLEWIGIIWGDGTTDYNSAVKSRVTISKDTSKNQFSLKLSSVTAADTAVYYCARGGYYYGTSYYFDYWGQGTLVTVS
VL: DIQMTQSPSSLSASVGDRVTITCRASQSISNNLNWYQQKPGKAPKLLIYYTSRFHSGVPSRFSGSGSGTDFTFTISSLQPEDIATYYCQQSKTLPYTFGQGTKLEIKR
notes: Combined clone with matured CDRs H1, H2, L1, L2 and grafted H3 and L3; Fab; human Ck, human IgG2a CH1, his tag; also called H19-L129 Fab; Fab H19-L129

Kd (human NGF [6]): 25 nM
B2: L_S91E; L_K92R; H_Y101W; H_G103A (8L2-6D5 template) (Fab, V domains shown)
VH: QVQLQESGPGLVKPSETLSLTCTVSGFSLIGYDINWIRQPPGKGLEWIGMIWGDGTTDYNSALKSRVTISKDTSKNQFSLKLSSVTAADTAVYYCARGGYWYATSYYFDYWGQGTLVTVS
VL: DIQMTQSPSSLSASVGDRVTITCRASQDISNHLNWYQQKPGKAPKLLIYYISRFHSGVPSRFSGSGSGTDFTFTISSLQPEDIATYYCQQERTLPYTFGQGTKLEIKR
notes: Human Ck, human IgG2a CH1, his tag
